This is an account of results in the nanobody polyreactivity screen of Harvey et al. (2022).

The data set in a line: yeast display, Sf9 membrane polyspecificity reagent, FACS + sequencing; frameworks hold sequencing errors. A digest of the protocol:
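After 36–48 hours of galactose induction, yeast (Saccharomyces cerevisiae BJ5465) displaying a synthetic nanobody library were stained at 4 °C for 1 hour with 10% biotinylated, detergent-solubilized Sf9 membrane reagent. Streptavidin microbeads enriched the stained cells before FACS sorting into low and high (top ~1%) gates on anti-HA and streptavidin fluorescence. Each clone's polyreactivity label reflects its gate of origin.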
In the case of “QVQLVESGGGLVQAGGSLRLSCAASGSTFFFNAMGWYRQAPGKERELVAGISSSGGSTHYADSVKGRFTISRDNAKNTVYLQMNSLKPEDTAVYYCNAQQYLTFRGTGDYWGQGTQVTVSS”, the “polyreactivity (PSR sort gate)” value is given as “low polyreactivity”.
Take “QVQLVESGGGLVQAGGSLRLSCAASGSTFFGNTMGWYRQAPGKERELVAAISRRGGSTYYADSVKGRFTISRDNAKNTVYLQMTSLIPEDTAVYYCAKYYQSGGYTPGKYDYWGQGTQVTVSS”: the “polyreactivity (PSR sort gate)” value was “high polyreactivity”.
In the case of “QVQLVESGGGLVQAGGSLRLSCAASGSTFFGYAMGWYRQAPGKERELVASITWSSGRTNYADSVKGRFTISRDNAKNTVFLQRYSVKPEETAVYYCAQVLDHQLYIDHWVRIYGYWGQGTQVTVSS” it was “low polyreactivity”; in that of “QVQLVESGGGLVQAGGSLRLSCAASGSTFFIYAMGRYRQAPGEERELVAAITSGGTYADSVKGRFTISRDNAKNTVYLQMNSLKPVDTAVYYCNAGNNVVVDYDYWGQGTQVTVSS”, “low polyreactivity”; in that of “QVQLVESGGGLVQAGGSLRLSCAASGSTFFPNAMGWYRQAPGKERELVAAIRWRGGTYYADSVKGRFTISRDNAKNTVYLQMNSLKQEDTAVYYCATSVKPSYDYWGQGTQVTVSS”, “low polyreactivity”.
As for “QVQLVESGGGLVQAGGSLRLSCAASGSTFFPNDKGWYRQAPGKERELVAAISWRGGNTYADSVKGLFTISRDNAKYTVYLQMNSLKPEDTAVYYCAAEFWYTYPYLVDYWGQGTLVTVSS”, the “polyreactivity (PSR sort gate)” value was “low polyreactivity”.
As for “QVQLVESGGGLVQAGGSLRLSCAASGSTFFPNGMGWYRLAPGKERELVAAITQDGGSTYYADSVKGRFTISRDNAKNTVSLQMNSLKPEDTAVYYCAASAGPSYEYGYWGQGTQVTVSS”, the entry is “low polyreactivity”; as for “QVQLVESGGGLVQAGGSLRLSCAASGSTFFRNAMGWYRQAPGKERELVASITSGGNTKYADSVKGRFTISRDNAKNTVYLQMNSLKPEDTAVYYCAAKFYHFASYSRLYNYWGQGTQVTVSS”, “low polyreactivity”.
In the case of “QVQLVESGGGLVQAGGSLRLSCAASGSTFFRYAMGWYRQAPGKERELVAAISYSGDSTYYADSVKGRFTISRDNAKNTVDLQMNSLKPEDTAVYYCNAVYFRYRYNYWGQGTQVTVSS” it was “high polyreactivity”.
In the case of “QVQLVESGGGLVQAGGSLRLSCAASGSTFFRYAMGWYRQAPGKERELVAAITSGGNTYYADSVKGRFTISRDNAKNTVYLQMNSLIPEDTAVYYCAVVFWQLAHRYDYWGQGTQVTVSS” it was “low polyreactivity”; in that of “QVQLVESGGGLVQAGGSLRLSCAASGSTFFRYAMGWYRQAPGKERELVAAITSSGGRTYYADSVKGRFTISRDNAKNTVYLQMNSLKPEDTAVYYCADASGTSPYDYWGQGTQVTVSS”, “high polyreactivity”; in that of “QVQLVESGGGLVQAGGSLRLSCAASGSTFFSKAMGWSRQEPGKERELVAAISRSGATTSYADSVKGRFTISRDNAKNTVYLQMNSLKPEDTAVYYCAVGRRYYQDYDYSGQGTQVTVSS”, “high polyreactivity”.
On to “QVQLVESGGGLVQAGGSLRLSCAASGSTFFSNAMGWYRQAPGKERELVAAISGSGDSTYYADSVKGRFTISRDNAKNTVYLQMNSLKPEDTAVYYCAARLSTAHYYLGDYWGQGTEVTVSS”, for which the “polyreactivity (PSR sort gate)” value was “low polyreactivity”.
As to “QVQLVESGGGLVQAGGSLRLSCAASGSTFFTYAMGWYRQAPGKERELVAAISWSGGTTYYADSVKGRFTISRDNAKNTVYLQMNSLKPEDTAVYYCASDRDGILKANDYWGQGTQVTVSS”, the “polyreactivity (PSR sort gate)” value is listed as “low polyreactivity”.
As for “QVQLVESGGGLVQAGGSLRLSCAASGSTFFTYAMGWYRQAPGKERELVAGISYSGGSTYYADSVKGRFTISRDNAKNTVYVQMNSLKPEDTAVYYCNAYISYGDFDLEFYYWGQGTQVTVSS”, the entry is “low polyreactivity”.
In the case of “QVQLVESGGGLVQAGGSLRLSCAASGSTFFYNAMGWYRQAPGKERELVAAISRGGGITYYADSVKGRFTISRDNAKNTVYLQMNSLKPEDTAVYYCQYLSRGLNTYRSSQGDDDYWGQGTQVTVSS” it was “high polyreactivity”.
Take “QVQLVESGGGLVQAGGSLRLSCAASGSTFFYYAMGWYRQAPGKDRELVAAISGGGGDTTYADSVKGRFTISRDNAKNTVYLQMNSLKPEDTAVYYCAAVPGSFGSGIFDYWGQGTQATVSS”: the “polyreactivity (PSR sort gate)” value was “low polyreactivity”.
As for “QVQLVESGGGLVQAGGSLRLSCAASGSTFFYYAMGWYRQAPGKERELVAAISQSSASTYYADSVKGRFTISRDNAKNTIYLQMNSLKPEDTAVYYCAADYWSVPYIYEYWGQGTQVTVSS”, the entry is “high polyreactivity”.
As to “QVQLVESGGGLVQAGGSLRLSCAASGSTFGANAMGGYRQAPGKERELVATISSGGRTYYADSVKGRFTISRDNAKNTVYLQMNSLKPEDTAVYYCNAGADYTYVYISVYVLYDYWGQGTQVTVSS”, the “polyreactivity (PSR sort gate)” value is “low polyreactivity”.
As for “QVQLVESGGGLVQAGGSLRLSCAASGSTFGANAMGLYRQAPGKEREFVAAISRSGVRTYYADSVKGRFTISRDNAQNTVYLQMNSLKPEDTAVYYCAADGYWWTYTRYDYWGQGTQVTVSS”, the entry is “low polyreactivity”.
As for “QVQLVESGGGLVQAGGSLRLSCAASGSTFGANAMGWYRQAPGKERELVAAITYDGGSTYYADSVKGRFTISRDTAKNTVYLQMNSLKPEDTAVYYCAADFHIDSYYWGYYWGQGTQVTVSS”, the entry is “low polyreactivity”; as for “QVQLVESGGGLVQAGGSLRLSCAASGSTFGAYAMGWYRQAPGKEREFVAGISVRGGSTYYADSVKGRFTISRDNAKNTVYLQMNSLKPEDTAVYYCAARRVDTRVHVRYRYYYWGQGTQVTVSS”, “high polyreactivity”.
As for “QVQLVESGGGLVQAGGSLRLSCAASGSTFGAYAMGWYRQAPGKERELVAAISKRGGSTYYADSVKGRFTISLDNAKNTVYLQMNSLKPEDTAVYYCATDHFSPTYGYWGQGTQVTVSS”, the entry is “low polyreactivity”; as for “QVQLVESGGGLVQAGGSLRLSCAASGSTFGAYAMGWYRQAPGKERELVAAISSSDGSTYYADSVKGRFTISRDNAKNTVYLQMNSLKPEDTAVYYCAAEYYSAVYIDEYWYDYWGQGTQVTVSS”, “high polyreactivity”.
On to “QVQLVESGGGLVQAGGSLRLSCAASGSTFGAYAMGWYRQAPGKERELVAAISSSGGRTYYADSVKGRFTISRDNAKNTVYLQMNSLKPEDTAVYYCATYYRHYDLLYYYWGQGTQVTVSS”, for which the “polyreactivity (PSR sort gate)” value is “high polyreactivity”.
In the case of “QVQLVESGGGLVQAGGSLRLSCAASGSTFGDYAMGWYRPAPGKERELVAAITIGGITTYADSVKGRFTISRDNAKNTVYLQMNSLKPEDTAVYYCAAAERGDWDDYWGQGTQVTVSS” it was “low polyreactivity”; in that of “QVQLVESGGGLVQAGGSLRLSCAASGSTFGDYAMGWYRQAPGKERELVAAISFSDDSTYYADSVKGRFTISRDNAKNTVYLQMNSLKPEDTAVYYCAKEAEYSTPGGDYWGQGTQVTVSS”, “low polyreactivity”.
In the case of “QVQLVESGGGLVQAGGSLRLSCAASGSTFGENAMGWYRQAPGKERELVAAINYSGGSTYYADSVKGRFTISRDNAKNTVYLQMNRLKPEDTAVYYCAAVNLPQLYYDYDYWGQGTQVTVSS” it was “low polyreactivity”.
On to “QVQLVESGGGLVQAGGSLRLSCAASGSTFGENDMGWYRQAPGKERELVAAITWSGGSTYYADSVKGRFTISRDNAKNPVYLQLNSLNPEDTAVYYCAARSTYRHWYRTGSRFDYWGQGTQVTVSS”, for which the “polyreactivity (PSR sort gate)” value is “low polyreactivity”.
Turning to “QVQLVESGGGLVQAGGSLRLSCAASGSTFGEYAMGWYRQAPGKERELVAAITFSGGSTYYADSVKGRFTISRDNAKNTVYLQMNSLKPEDTAVYYCNADGVWVYGYRWEWLWYDYWGQGTQVTVSS”, the “polyreactivity (PSR sort gate)” value is recorded as “low polyreactivity”.
With “QVQLVESGGGLVQAGGSLRLSCAASGSTFGFNAMGWYRQAPGKERELVAAIRGGDSTNYADSVKGRFTISRDNAKNTVYLQMNSLKPEDTAVYYCAAVLRYVVRPYSYWSGGYDYWGQGTQVTVSS”, the “polyreactivity (PSR sort gate)” value is reported as “high polyreactivity”.
In the case of “QVQLVESGGGLVQAGGSLRLSCAASGSTFGFNAMGWYRQAPGKERELVAAISRSGGSTYYADSVKGRFTISRDNAKNTVYLQMNSLKPEDTAVYYCAVGYRYLKWVDYWGQGTQVTVSS” it was “high polyreactivity”; in that of “QVQLVESGGGLVQAGGSLRLSCAASGSTFGFNAMGWYRQAPGKERELVASITSGDSTYYADSVKGRFTISRDNAKNTVYLQMNSLKPEDTAVYYCAKVGGGGQAGDNPILSDYWGQGTQVTVSS”, “low polyreactivity”.
As for “QVQLVESGGGLVQAGGSLRLSCAASGSTFGFNVMGWYRPAPGKERELVAAIRYRDGSTYYADSVKGRFTISRDNAKNTVYLQMNSLKPEDTAVYYCNTRITQVGDYIYDYWGQGTQVTVSS”, the entry is “low polyreactivity”; as for “QVQLVESGGGLVQAGGSLRLSCAASGSTFGFNVMGWYRQAPGKERELVAVITSDGNTYYADSVKGRFTISRDNAKNTVYLQMNSLKPEDTAVYYCAVSELGTPYGYWGQGTQVTVSS”, “low polyreactivity”.
As for “QVQLVESGGGLVQAGGSLRLSCAASGSTFGFYAMGWYRQAPGKERELVAAIDWISGSTYYADSVKGRFTISRDNAKNTVYLQLNSLKPEDTAVYYCAAQFYYHFRYHFDWGQGTQVTVSS”, the entry is “low polyreactivity”.
With “QVQLVESGGGLVQAGGSLRLSCAASGSTFGGNAMGWYRQAPGKEREFVAAIRFSGGSTYYADSVKGRFTISRDNAKNTVYLQMNSLKPEDTAVYFCAKRGYGHLIPIAYEYWGQGTQVTVSS”, the “polyreactivity (PSR sort gate)” value was “low polyreactivity”.
In the case of “QVQLVESGGGLVQAGGSLRLSCAASGSTFGGNAMGWYRQAPGKERELVAAITVGGDSTYYADSVKGRFTISRDNAKNTVYLQMNSLKPEVTAVYYCAAGPWYKFYDWRPWFSYDYWGQGTQVTVSS” it was “low polyreactivity”; in that of “QVQLVESGGGLVQAGGSLRLSCAASGSTFGGYAKGWYRQAPGKERELVAAISGSGVRTYYADSVKGRFTISRDNAKNTVYLQMNSLKPEDTAVYYCAKRVRYPGDRYYYWGQGTQVTVSS”, “high polyreactivity”; in that of “QVQLVESGGGLVQAGGSLRLSCAASGSTFGGYAMGWYRQAPGKEREFVAAITKRGGRTYYADSVKGRFTISRDNAKNTVYLQMNSLKPEDTAVYYCATRGINYAEYDYWGQGTQVTVSS”, “high polyreactivity”.
As for “QVQLVESGGGLVQAGGSLRLSCAASGSTFGGYAMGWYRQAPGKERELVADIDSIGGSTYYADSVKGRFTISRDNAKNTVYLQMNSLKPEDTAVYYCAARRFDTALVLYDYWGQGTQVTVSS”, the entry is “low polyreactivity”.
